In patent publication US20090291088A1 (Biogen, published 2009):

Legend:
[1] = target: T1, hIGF-1R-Fc mutant SD203 (N254A) (human, UniProt P08069 31-933); experiment: SPR, antibody over captured mutant
T1 construct: not shown: C-terminal human IgG1-Fc tag
Procedure: (§1) Surface plasmon resonance (SPR) experiments were performed on a Biacore 3000 instrument set to 25° C. […] The antibody sensorchip surfaces were prepared by injecting each antibody (diluted 100 μg/mL in 10 mM Acetate, pH 4.0) over EDC/NHS-activated sensorchip surfaces according to the standard protocol of the manufacturer. […] Both hIGF-1R-Fc and mIGF-1R-Fc proteins oligomerize due to the incorporation of two separate homodimeric regions (IGF-1R and IgG1-Fc). […] After, completion of the receptor-Fc loading step, flow rates were elevated to 5 μl/min. […] Dissociation was measured for 7 minutes after the antibody injections were complete. Finally, the flow rate was elevated to 30 μL/min and the chip surfaces were regenerated by 2×10 μL injections of 0.1 M glycine, pH 2.

[2] = target: T2, hIGF-1R-Fc mutant SD207 (G265Y) (human, UniProt P08069 31-933); experiment: SPR, antibody over captured mutant
T2 construct: not shown: C-terminal human IgG1-Fc tag
Procedure: as §1

[3] = target: T3, human IGF-1R(1-903)-Fc (human, UniProt P08069 31-933); experiment: ELISA on hIGF-1R-Fc, competitor Zenon-labelled αIR3
T3 construct: Made by Biogen Idec; Multimerises through IGF-1R and Fc; also called hIGF-1R-Fc; IGF-1R-Fc; not shown: C-terminal human IgG1-Fc tag

[4] = target: T3, human IGF-1R(1-903)-Fc; experiment: ELISA on hIGF-1R-Fc, competitor biotinylated M14-G11
[5] = target: T4, hIGF-1R-Fc mutant SD008 (S257F) (human, UniProt P08069 31-933); experiment: SPR, Fab over captured SD008
T4 construct: not shown: C-terminal human IgG1-Fc tag
Procedure: as §1

[6] = target: T5, hIGF-1R-Fc mutant SD012 (E303G) (human, UniProt P08069 31-933); experiment: SPR, Fab over captured SD012
T5 construct: not shown: C-terminal human IgG1-Fc tag
Procedure: as §1

[7] = target: T6, hIGF-1R-Fc mutant SD015 (H464E) (human, UniProt P08069 31-933); experiment: SPR, Fab over captured SD015
T6 construct: not shown: C-terminal human IgG1-Fc tag

[8] = target: T7, human IGF-1R expressed on cells (human, UniProt P08069 31-1367); experiment: flow cytometry, MCF-7 cells
T7 construct: On MCF-7 tumor cells or on 3T3/CHO transfectants; precursor is processed into alpha and beta subunits; Signal peptide 1-30 left out as stated; also called wild type IGF-1R; IGF-1R 3T3

[9] = target: T8, hIGF-1R-Fc mutant SD201 (D248A) (human, UniProt P08069 31-933); experiment: SPR, Fab over captured mutant
T8 construct: not shown: C-terminal human IgG1-Fc tag

[10] = target: T9, hIGF-1R-Fc mutant SD202 (D250S) (human, UniProt P08069 31-933); experiment: SPR, Fab over captured mutant
T9 construct: not shown: C-terminal human IgG1-Fc tag

[11] = target: T10, human IGF-1R(1-902)-His10 (human, UniProt P08069 31-932); experiment: SPR, Fab over captured IGF-1R-10His
T10 construct: Cy5-labelled in tr-FRET; also called hIGF-1R-His10; IGF-1R-His
Procedure: All surface plasmon resonance (SPR) experiments were performed on a Biacore 3000 set to 25° C. using HBS-EP (Biacore, Cat. No. BR-1001-88) as the running buffer. A biotin-labeled anti-HisTag antibody (biotin-PENTA-His, Qiagen Cat. No. 34440) was immobilized to saturation on a Biacore SA chip (Cat. No. BR-1000-32) surface by injection at 500 nM in HBS-EP buffer. […] Subsequent to IGF-1R injections, flow rates were increased to 20 μL/min. A second, 130 μL injection of anti-IGF-1R antibody or Fab was performed to investigate interactions with the receptor. Each antibody and Fab was serially diluted from 64 nM to 0.5 nM to obtain concentration dependent kinetic binding curves. Each injection series was regenerated using 3×10 μL injections of 10 mM Acetate, pH 4.0, at 20 μL/min. Each curve was double referenced using (1) data obtained from a streptavidin surface devoid of IGF-1R and (2) data from a primary injection of IGF-1R followed by a secondary injection of HBS-EP buffer. The concentration series for each antibody and Fab was fit to the 1:1 binding model provided within the BiaEvaluation software of the manufacturer.
To obtain discrete affinities, Fab fragments of each antibody were generated using papain digestion as described above.

B1: P1E2 (chimeric antibody) (antibody, human IgG4, V domains shown)
VH: QVQLQQPGAELVKPGASVKLSCKASGYTFTSYWMHWVKQRPGQGLEWIGEINPTYGRSNYNEKFKSKATLTVDKSSSTAYMQLSSLTSEDSAVYYCARLVRLRYFDVWGAGTTVTVSS
VL: DIVMTQAAFSNPVTLGTSASISCRSSKSLLHSNGITYLYWYLQKPGQSPQLLIYQMSNLASGVPDRFSSSGSGTDFTLRISRVEAEDVGVYYCAQNLELPYTFGGGTKLEIK
notes: also called chimeric antibody P1E2
B1 was tested, and the binding result [1] was “no binding (tested: 30 nM)”, the binding result [2] was “no binding (tested: 30 nM)” and the “percent competition (relative to self-competition)” value [3] was 90 to 100%. For the same binder, the “percent competition (relative to self-competition)” value [4] was 90 to 100%.

B2: M14-G11 Fab (Fab, V domains shown)
VH: EVQLLESGGGLVQPGGSLRLSCAASGFTFSNYPMYWVRQAPGKGLEWVSRISSSGGRTVYADSVKGRFTISRDNSKNTLYLQMNSLRAEDTAVYYCARDRWSRSAAEYGLGGYWGQGTLVTVSS
VL: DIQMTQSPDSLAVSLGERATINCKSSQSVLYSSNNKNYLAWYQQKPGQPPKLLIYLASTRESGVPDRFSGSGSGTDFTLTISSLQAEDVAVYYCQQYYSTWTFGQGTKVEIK
notes: Human phage Fab, kappa
With B2 the “fold loss in affinity against wild-type” value [5] was about 3 fold, the “fold loss in affinity against wild-type” value [6] was about 3 fold and the Kd [7] was 4 to 6 nM. For the same binder, the EC50 [8] was 39.8 nM, the binding result [9] was “no binding (tested: 30 nM)” and the binding result [10] was “no binding (tested: 30 nM)”. It also gave a Kd [11] of 4 nM, a koff [11] of 0.0012 s⁻¹ and a kon [11] of 300000 M⁻¹ s⁻¹.
